# According to publication doi:10.1101/2021.11.30.470528:
# Target: GST affinity tag
# Test: SEC
# GST affinity tag, sequence (P08515 2-218): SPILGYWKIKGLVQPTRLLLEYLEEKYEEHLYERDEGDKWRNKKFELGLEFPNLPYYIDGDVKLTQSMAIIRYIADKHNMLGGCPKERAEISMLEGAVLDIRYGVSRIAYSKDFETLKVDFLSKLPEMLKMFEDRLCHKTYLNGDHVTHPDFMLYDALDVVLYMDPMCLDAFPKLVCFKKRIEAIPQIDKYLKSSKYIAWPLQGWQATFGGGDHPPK
substance,measurement,value
GST affinity tag,stoichiometry N,2
